Data set [1] deals with T1, RAD51 (wild-type human RAD51 DNA strand exchange protein) (human, UniProt Q06609 1-339).
T1 sequence: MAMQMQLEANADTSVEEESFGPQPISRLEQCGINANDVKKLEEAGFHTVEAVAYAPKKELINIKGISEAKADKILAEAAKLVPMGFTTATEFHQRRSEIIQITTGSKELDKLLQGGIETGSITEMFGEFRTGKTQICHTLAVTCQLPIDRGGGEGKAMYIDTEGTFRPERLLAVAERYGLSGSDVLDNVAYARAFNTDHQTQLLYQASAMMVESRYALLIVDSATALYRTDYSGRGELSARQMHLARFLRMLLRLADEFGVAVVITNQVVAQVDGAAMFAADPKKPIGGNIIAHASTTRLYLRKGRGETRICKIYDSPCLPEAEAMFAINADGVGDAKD
Kind of data set: fluorescence polarisation.

A further data set has as its target RAD51 E59A (human, UniProt Q06609 1-339, E59A). Kind of data set: FRET.
In a further data set the target is RAD51 E237A (human, UniProt Q06609 1-339, E237A). Put plainly: FRET.
The target in the next data set is RAD51 E42A (human, UniProt Q06609 1-339, E42A). Put plainly: FRET.
In another data set the target is RAD51 wild type (human, UniProt Q06609 1-339). Kind of data set: FRET.

B1: FITC-BRC4 peptide (BRC4 repeat of BRCA2) (peptide)
peptide: KEPTLLGFHTASGKKVKIAKESLDKVKNLFDEKEQ
modifications: FITC (fluorescein) on the N-terminus, as printed: FITC-KEPT...
The term Kd denotes the constant that tells how readily two partners part at equilibrium. A lower Kd goes with a tighter complex. B1 displayed a Kd in data set [1] of 34 ± 5 nM.

B2: dT60 (poly(dT)-60) (ssDNA)
DNA: TTTTTTTTTTTTTTTTTTTTTTTTTTTTTTTTTTTTTTTTTTTTTTTTTTTTTTTTTTTT
As for B2, the binding result in the data set with RAD51 E59A, in the data set with RAD51 E237A, with RAD51 E42A and in the data set with RAD51 wild type was “binds” each time.

The record behind these values is article PMC3799448 (Nucleic Acids Research, 2013).
